From patent US20230140293A1

Legend:
Test in all cases: cell-based or functional assay
[1] = molecular target: CH0505TF.G458Y Env, pseudotyped virus produced in 293S GnTI- cells (HIV-1)
[2] = molecular target: CH0505TF.gly4.G458Y Env, pseudotyped virus produced in 293S GnTI- cells (HIV-1)
[3] = molecular target: HIV-1 Env 426c.TM (N276D.N460D.N463D), Env-pseudotyped virus produced in 293S GnTI- cells (Man5-enriched) (HIV-1 clade C strain 426c)
[4] = molecular target: CH0505TF.gly4 Env, pseudotyped virus produced in 293S GnTI- cells (HIV-1)
[5] = molecular target: CH0505TF Env, pseudotyped virus produced in 293S GnTI- cells (HIV-1)
[6] = molecular target: HIV-1 Env 426c.SM (N276D), Env-pseudotyped virus produced in 293S GnTI- cells (Man5-enriched) (HIV-1 clade C strain 426c)
[7] = molecular target: CH0505TF.gly3.276 Env, Env-pseudotyped virus produced in 293T cells (HIV-1)
[8] = molecular target: CH0505.w4.3 Env, pseudotyped virus produced in 293S GnTI- cells (HIV-1)
[9] = molecular target: CH0505.w4.3 Env, Env-pseudotyped virus produced in 293T cells (HIV-1)
[10] = molecular target: CH0505TF.G458Y Env, Env-pseudotyped virus produced in 293T cells (HIV-1)
[11] = molecular target: CH0505TF.gly3.276 Env, pseudotyped virus produced in 293S GnTI- cells (HIV-1)
[12] = molecular target: HIV-1 Env 426c.DM (N460D.N463D), Env-pseudotyped virus produced in 293T cells (HIV-1 clade C strain 426c)
[13] = molecular target: HIV-1 Env 426c.SM (N276D), Env-pseudotyped virus produced in 293T cells (HIV-1 clade C strain 426c)
[14] = molecular target: CH0505TF.gly3.461 Env, Env-pseudotyped virus produced in 293T cells (HIV-1)
[15] = molecular target: CH0505TF.gly4 Env, Env-pseudotyped virus produced in 293T cells (HIV-1)
[16] = molecular target: HIV-1 Env 426c, Env-pseudotyped virus produced in 293T cells (HIV-1 clade C strain 426c)
[17] = molecular target: CH0505TF.gly4.G458Y Env, pseudotyped virus produced in 293T cells (HIV-1)
[18] = molecular target: HIV-1 Env 426c.TM (N276D.N460D.N463D), Env-pseudotyped virus produced in 293T cells (HIV-1 clade C strain 426c)
[19] = molecular target: CH0505TF.gly3.461 Env, pseudotyped virus produced in 293S GnTI- cells (HIV-1)
[20] = molecular target: CH0505TF.gly3.197 Env, pseudotyped virus produced in 293S GnTI- cells (HIV-1)
[21] = molecular target: CH0505TF.gly3.197 Env, Env-pseudotyped virus produced in 293T cells (HIV-1)
[22] = molecular target: CH0505TF Env, Env-pseudotyped virus produced in 293T cells (HIV-1)
[23] = molecular target: HIV-1 Env 426c.TM4 (S278R.G471S.N460D.N463D), Env-pseudotyped virus produced in 293T cells (HIV-1 clade C strain 426c)
[24] = molecular target: HIV-1 Env 426c.DM (N460D.N463D), Env-pseudotyped virus produced in 293S GnTI- cells (Man5-enriched) (HIV-1 clade C strain 426c)
[25] = molecular target: HIV-1 Env 426c.TM4 (S278R.G471S.N460D.N463D), Env-pseudotyped virus produced in 293S GnTI- cells (Man5-enriched) (HIV-1 clade C strain 426c)
[26] = molecular target: HIV-1 Env 426c, Env-pseudotyped virus produced in 293S GnTI- cells (Man5-enriched) (HIV-1 clade C strain 426c)
[27] = molecular target: HIV-1 CH0505TF.G458Y Env on Env-pseudotyped virus produced in 293S GnTI-/- cells (Man5-enrichment) (HIV-1)
[28] = molecular target: HIV-1 CH0505TF.S365P Env on Env-pseudotyped virus produced in 293S GnTI- cells (HIV-1)
[29] = molecular target: HIV-1 CH0505TF.N280D Env on Env-pseudotyped virus produced in 293S GnTI- cells (HIV-1)
[30] = molecular target: HIV-1 CH0505TF Env on Env-pseudotyped virus produced in 293S/GnTI-/- cells (Man5-enrichment) (HIV-1)
[31] = molecular target: HIV-1 CH0505TF.N280D Env on Env-pseudotyped virus produced in 293T cells (HIV-1)
[32] = molecular target: HIV-1 CH0505TF.S365P Env on Env-pseudotyped virus produced in 293T cells (HIV-1)
[33] = molecular target: HIV-1 CH0505TF.G458Y Env on Env-pseudotyped virus produced in 293T cells (HIV-1)
[34] = molecular target: HIV-1 CH0505TF (CH505 transmitted/founder) Env on Env-pseudotyped virus produced in 293T cells (HIV-1)
[35] = molecular target: HIV-1 clade C strain 426c Env on Env-pseudotyped virus produced in 293s/GnTI-/- cells (Man5-enrichment) (HIV-1)
[36] = molecular target: HIV-1 426c.TM (N276D/N460D/N463D) Env on Env-pseudotyped virus produced in 293T cells (HIV-1)
[37] = molecular target: HIV-1 426c.SM (N276D) Env on Env-pseudotyped virus produced in 293s/GnTI-/- cells (Man5-enrichment) (HIV-1)
[38] = molecular target: HIV-1 CH0505TF.gly3.197 Env on Env-pseudotyped virus produced in 293S/GnTI-/- cells (Man5-enrichment) (HIV-1)
[39] = molecular target: HIV-1 CH0505TF.gly3.197 Env on Env-pseudotyped virus produced in 293T cells (HIV-1)
[40] = molecular target: HIV-1 426c.DM (N460D/N463D) Env on Env-pseudotyped virus produced in 293s/GnTI-/- cells (Man5-enrichment) (HIV-1)
[41] = molecular target: HIV-1 CH0505TF.gly4 Env on Env-pseudotyped virus produced in 293S/GnTI-/- cells (Man5-enrichment) (HIV-1)
[42] = molecular target: HIV-1 CH0505TF Env on Env-pseudotyped virus produced in 293S/GnTI-/- cells (Man5-enrichment) (HIV-1); remark: listed apart in the source
[43] = molecular target: HIV-1 426c.TM (N276D/N460D/N463D) Env on Env-pseudotyped virus produced in 293s/GnTI-/- cells (Man5-enrichment) (HIV-1)
[44] = molecular target: HIV-1 426c.SM (N276D) Env on Env-pseudotyped virus produced in 293T cells (HIV-1)
[45] = molecular target: HIV-1 clade C strain 426c Env on Env-pseudotyped virus produced in 293T cells (HIV-1)
[46] = molecular target: HIV-1 CH0505TF.gly4 Env on Env-pseudotyped virus produced in 293T cells (HIV-1)
[47] = molecular target: HIV-1 426c.DM (N460D/N463D) Env on Env-pseudotyped virus produced in 293T cells (HIV-1)
[48] = molecular target: HIV-1 CH0505TF (CH505 transmitted/founder) Env on Env-pseudotyped virus produced in 293T cells (HIV-1); remark: listed apart in the source

Substance: CH235.12 (antibody)
- IC50 (µg/ml) in TZM-bl [1]: 0.003 µg/mL
- IC50 (µg/ml) in TZM-bl cells [2]: < 0.005 µg/mL
- IC50 (µg/ml) in TZM-bl [3]: 0.07 µg/mL
- IC50 (µg/ml) in TZM-bl [4]: 0.001 µg/mL
- IC50 (µg/ml) in TZM-bl [5]: 0.015 µg/mL
- IC50 (µg/ml) in TZM-bl [6]: 0.26 µg/mL
- IC50 (µg/ml) in TZM-bl [7]: 0.001 µg/mL
- IC50 (µg/ml) in TZM-bl [8]: 0.01 µg/mL
- IC50 (µg/ml) in TZM-bl [9]: 0.04 µg/mL
- IC50 (µg/ml) in TZM-bl [10]: 0.014 µg/mL
- IC50 (µg/ml) in TZM-bl [11]: 0.005 µg/mL
- IC50 (µg/ml) in TZM-bl [12]: 0.66 µg/mL
- IC50 (µg/ml) in TZM-bl [13]: 1.08 µg/mL
- IC50 (µg/ml) in TZM-bl [14]: 0.003 µg/mL
- IC50 (µg/ml) in TZM-bl [15]: 0.001 µg/mL
- IC50 (µg/ml) in TZM-bl [16]: 8.95 µg/mL
- IC50 (µg/ml) in TZM-bl cells [17]: < 0.005 µg/mL
- IC50 (µg/ml) in TZM-bl [18]: 0.09 µg/mL
- IC50 (µg/ml) in TZM-bl [19]: 0.002 µg/mL
- IC50 (µg/ml) in TZM-bl [20]: 0.003 µg/mL
- IC50 (µg/ml) in TZM-bl [21]: 0.008 µg/mL
- IC50 (µg/ml) in TZM-bl [22]: 0.04 µg/mL
- IC50 (µg/ml) in TZM-bl [23]: 0.1 µg/mL
- IC50 (µg/ml) in TZM-bl [24]: > 25 µg/mL
- IC50 (µg/ml) in TZM-bl [25]: 24.2 µg/mL
- IC50 (µg/ml) in TZM-bl [26]: > 25 µg/mL
- IC50 (µg/ml) in TZM-bl [27]: < 0.02 µg/mL
- IC50 (µg/ml) in TZM-bl [28]: 0.01 µg/mL
- IC50 (µg/ml) in TZM-bl [29]: 0.02 µg/mL
- IC50 (µg/ml) in TZM-bl [30]: 0.02 µg/mL
- IC50 (µg/ml) in TZM-bl [31]: 0.06 µg/mL
- IC50 (µg/ml) in TZM-bl [32]: 0.03 µg/mL
- IC50 (µg/ml) in TZM-bl [33]: 0.01 µg/mL
- IC50 (µg/ml) in TZM-bl [34]: 0.04 µg/mL

Substance: VRC01 (antibody)
- IC50 (µg/ml) in TZM-bl [1]: 0.91 µg/mL
- ID50/IC50 in TZM-bl [35]: 0.19 µg/mL
- IC50 (µg/ml) in TZM-bl [3]: 0.015 µg/mL
- IC50 (µg/ml) in TZM-bl [4]: 0.001 µg/mL
- IC50 (µg/ml) in TZM-bl [5]: 0.03 µg/mL
- ID50/IC50 in TZM-bl [36]: 0.03 µg/mL
- IC50 (µg/ml) in TZM-bl [6]: 0.04 µg/mL
- ID50/IC50 in TZM-bl [37]: 0.04 µg/mL
- IC50 (µg/ml) in TZM-bl [7]: 0.004 µg/mL
- IC50 (ug/ml) in TZM-bl cells [38]: 0.009 µg/mL
- IC50 (µg/ml) in TZM-bl [9]: 0.05 µg/mL
- IC50 (µg/ml) in TZM-bl [10]: > 25 µg/mL
- IC50 (µg/ml) in TZM-bl [11]: 0.003 µg/mL
- IC50 (ug/ml) in TZM-bl cells [39]: 0.023 µg/mL
- ID50/IC50 in TZM-bl [40]: 0.04 µg/mL
- IC50 (µg/ml) in TZM-bl [12]: 0.41 µg/mL
- IC50 (ug/ml) in TZM-bl cells [41]: 0.001 µg/mL
- IC50 (µg/ml) in TZM-bl [13]: 0.39 µg/mL
- IC50 (ug/ml) in TZM-bl cells [42]: 0.03 µg/mL
- IC50 (µg/ml) in TZM-bl [14]: 1.98 µg/mL
- IC50 (µg/ml) in TZM-bl [15]: 0.002 µg/mL
- ID50/IC50 in TZM-bl [43]: 0.015 µg/mL
- IC50 (µg/ml) in TZM-bl [16]: 2.2 µg/mL
- IC50 (µg/ml) in TZM-bl [18]: 0.03 µg/mL
- IC50 (µg/ml) in TZM-bl [19]: 0.015 µg/mL
- IC50 (µg/ml) in TZM-bl [20]: 0.009 µg/mL
- IC50 (µg/ml) in TZM-bl [21]: 0.023 µg/mL
- IC50 (µg/ml) in TZM-bl [22]: 0.1 µg/mL
- IC50 (µg/ml) in TZM-bl [23]: 0.002 µg/mL
- IC50 (µg/ml) in TZM-bl [24]: 0.04 µg/mL
- ID50/IC50 in TZM-bl [44]: 0.39 µg/mL
- IC50 (µg/ml) in TZM-bl [25]: 0.007 µg/mL
- IC50 (µg/ml) in TZM-bl [26]: 0.19 µg/mL
- ID50/IC50 in TZM-bl [45]: 2.2 µg/mL
- IC50 (ug/ml) in TZM-bl cells [46]: 0.002 µg/mL
- ID50/IC50 in TZM-bl [47]: 0.41 µg/mL
- IC50 (ug/ml) in TZM-bl cells [48]: 0.09 µg/mL
- IC50 (µg/ml) in TZM-bl [31]: > 25 µg/mL
- IC50 (µg/ml) in TZM-bl [32]: 0.1 µg/mL
- IC50 (µg/ml) in TZM-bl [33]: > 25 µg/mL
- IC50 (µg/ml) in TZM-bl [34]: 0.1 µg/mL
